Article PMC3728543, “Structure-Based Mechanism for Early PLP-Mediated Steps of Rabbit Cytosolic Serine Hydroxymethyltransferase Reaction” (BioMed Research International, 2013)
Changes are numbered by the printed parent chain. Numbers in names are those of the source.

B1: rabbit cytosolic serine hydroxymethyltransferase, wild type (enzyme, UniProt P07511 1-484, looked up)
chain: MATAVNGAPRDAALWSSHEQMLAQPLKDSDAEVYDIIKKESNRQRVGLELIASENFASRAVLEALGSCLNNKYSEGYPGQRYYGGTEHIDELETLCQKRALQAYGLDPQCWGVNVQPYSGSPANFAVYTALVEPHGRIMGLDLPDGGHLTHGFMTDKKKISATSIFFESMAYKVNPDTGYIDYDRLEENARLFHPKLIIAGTSCYSRNLDYGRLRKIADENGAYLMADMAHISGLVVAGVVPSPFEHCHVVTTTTHKTLRGCRAGMIFYRRGVRSVDPKTGKEILYNLESLINSAVFPGLQGGPHNHAIAGVAVALKQAMTPEFKEYQRQVVANCRALSAALVELGYKIVTGGSDNHLILVDLRSKGTDGGRAEKVLEACSIACNKNTCPGDKSALRPSGLRLGTPALTSRGLLEKDFQKVAHFIHRGIELTVQIQDDTGPRATLKEFKEKLAGDEKHQRAVRALRQEVESFAALFPLPGLPGF
modifications: pyridoxal 5'-phosphate bound as internal aldimine to the epsilon-amino group of Lys257
notes: rabbit cytosolic serine hydroxymethyltransferase (rcSHMT, EC 2.1.2.1); cDNA in the pET22b vector; the wild type probably came the same way; also called rcSHMT; wild type rcSHMT
B2: rabbit cytosolic serine hydroxymethyltransferase T254C mutant (enzyme, UniProt P07511 1-484, looked up)
chain: B1 chain with T254C
modifications: pyridoxal 5'-phosphate bound to Lys257 (internal aldimine; gem-diamine with glycine or L-serine)
notes: rabbit cytosolic serine hydroxymethyltransferase (rcSHMT) with T254C; cDNA in the pET22b vector; numbering is that for rcSHMT; also called T254C rcSHMT
B3: rabbit cytosolic serine hydroxymethyltransferase T254A mutant (enzyme, UniProt P07511 1-484, looked up)
chain: B1 chain with T254A
modifications: pyridoxal 5'-phosphate bound to Lys257 (internal aldimine; gem-diamine with glycine or L-serine)
notes: rabbit cytosolic serine hydroxymethyltransferase (rcSHMT) with T254A; cDNA in the pET22b vector; numbering is that for rcSHMT; also called T254A rcSHMT

Target: the molecule itself
Experiment: crystal structure; crystals from 2-3% PEG4000, 20 mM K2HPO4/KH2PO4, 50 mM potassium MES or sodium HEPES pH 7.0, room temperature, protein 50 mg/mL; unliganded or with 60 mM glycine or L-serine; space group P41 with a tetramer per asymmetric unit (T254C-glycine: P41212, a dimer per asymmetric unit)

Row | Protein | stoichiometry N
1 | B1 | 4
2 | B2 | 4
3 | B3 | 4
